Assay results published in article doi:10.1101/2025.02.25.640118 (bioRxiv, 2025).
Values belong to the molecule of their own block, whether it stands above or below them.

Experiments:
[1] = molecular target: MsyB (Escherichia coli protein MsyB) (E. coli) (UniProt P25738); assay: BLI
[2] = molecular target: MsyB (Escherichia coli protein MsyB) (E. coli) (UniProt P25738); assay: SEC
[3] = molecular target: β-clamp (β subunit of DNA polymerase) (E. coli, UniProt P0A988 1-366); assay: BLI
IHF = molecular target: T1, IHF (E. coli, UniProt P0A6X7 1-99; P0A6Y1 1-94)
T1 sequence (looked up) 1: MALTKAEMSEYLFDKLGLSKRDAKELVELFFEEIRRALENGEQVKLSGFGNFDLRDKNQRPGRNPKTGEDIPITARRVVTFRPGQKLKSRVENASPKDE
T1 sequence (looked up) 2: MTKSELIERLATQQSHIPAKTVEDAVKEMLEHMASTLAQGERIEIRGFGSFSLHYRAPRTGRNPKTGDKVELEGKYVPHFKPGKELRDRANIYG

HUαβ = molecular target: T2, HUαβ (E. coli, UniProt P0ACF0 1-90; P0ACF4 1-90); assay: BLI
T2 sequence (looked up) 1: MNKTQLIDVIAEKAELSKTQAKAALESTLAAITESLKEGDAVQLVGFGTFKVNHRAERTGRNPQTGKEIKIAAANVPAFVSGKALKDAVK
T2 sequence (looked up) 2: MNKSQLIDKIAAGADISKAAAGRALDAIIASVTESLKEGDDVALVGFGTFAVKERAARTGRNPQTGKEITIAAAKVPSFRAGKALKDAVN

[4] = molecular target: HUαα (HU alpha homodimer) (Escherichia coli, UniProt P0ACF0 1-90); assay: EMSA

Sequence of β-clamp (β subunit of DNA polymerase) (P0A988 whole entry): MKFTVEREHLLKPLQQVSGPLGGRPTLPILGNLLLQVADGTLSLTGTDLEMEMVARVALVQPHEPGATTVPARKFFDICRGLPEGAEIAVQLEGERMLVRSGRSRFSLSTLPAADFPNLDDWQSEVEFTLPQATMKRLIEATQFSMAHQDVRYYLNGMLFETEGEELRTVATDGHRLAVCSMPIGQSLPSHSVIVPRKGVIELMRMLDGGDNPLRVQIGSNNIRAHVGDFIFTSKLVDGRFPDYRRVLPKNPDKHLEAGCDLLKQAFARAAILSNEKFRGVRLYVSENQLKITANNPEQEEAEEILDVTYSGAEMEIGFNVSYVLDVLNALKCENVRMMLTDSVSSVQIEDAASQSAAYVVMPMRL

Molecule: HUαα (from UniProt P0ACF0 1-90) (natural protein)
stoichiometry N [2]: 1
Kd [1]: 0.00488 µM

B1: HUαα-MsyB complex (complex, E. coli)
chain 1: MNKTQLIDVIAEKAELSKTQAKAALESTLAAITESLKEGDAVQLVGFGTFKVNHRAERTGRNPQTGKEIKIAAANVPAFVSGKALKDAVK
chain 2: MTMYATLEEAIDAAREEFLADNPGIDAEDANVQQFNAQKYVLQDGDIMWQVEFFADEGEEGECLPMLSGEAAQSVFDGDYDEIEIRQEWQEENTLHEWDEGEFQLEPPLDTEEGRAAADEWDER
Kd [3]: 0.499 µM

B3: dsDNA (DNA1/DNA2), 21 bp (dsDNA)
DNA 1: TGCTTATCAATTTGTTGCACC
DNA 2: GGTGCAACAAATTGATAAGCA
binding result [4]: binds

Next, values leading:

Kd [1]: 0.7 µM
Molecule: β-clamp (β subunit of DNA polymerase) (from UniProt P0A988 1-366) (natural protein)

Kd (IHF): 0.095 µM
Kd (HUαβ): 0.00322 µM
B2: MsyB (Escherichia coli protein MsyB) (natural protein, E. coli, UniProt P25738 1-124, looked up)
chain: MTMYATLEEAIDAAREEFLADNPGIDAEDANVQQFNAQKYVLQDGDIMWQVEFFADEGEEGECLPMLSGEAAQSVFDGDYDEIEIRQEWQEENTLHEWDEGEFQLEPPLDTEEGRAAADEWDER
